B1: HEYL (protein, UniProt Q9NQ87 1-328, looked up)
Hairy/enhancer-of-split …: MKRPKEPSGSDGESDGPIDVGQEGQLSQMARPLSTPSSSQMQARKKHRGIIEKRRRDRINSSLSELRRLVPTAFEKQGSSKLEKAEVLQMTVDHLKMLHATGGTGFFDARALAVDFRSIGFRECLTEVIRYLGVLEGPSSRADPVRIRLLSHLNSYAAEMEPSPTPTGPLAFPAWPWSFFHSCPGLPALSNQLAILGRVPSPVLPGVSSPAYPIPALRTAPLRRATGIILPARRNVLPSRGASSTRRARPLERPATPVPVAPSSRAARSSHIAPLLQSSSPTPPGPTGSAAYVAVPTPNSSSPGPAGRPAGAMLYHSWVSEITEIGAF
B2: HDAC8 (protein, UniProt Q9BY41 1-377, looked up)
Histone deacetylase 8: MEEPEEPADSGQSLVPVYIYSPEYVSMCDSLAKIPKRASMVHSLIEAYALHKQMRIVKPKVASMEEMATFHTDAYLQHLQKVSQEGDDDHPDSIEYGLGYDCPATEGIFDYAAAIGGATITAAQCLIDGMCKVAINWSGGWHHAKKDEASGFCYLNDAVLGILRLRRKFERILYVDLDLHHGDGVEDAFSFTSKVMTVSLHKFSPGFFPGTGDVSDVGLGKGRYYSVNVPIQDGIQDEKYYQICESVLKEVYQAFNPKAVVLQLGADTIAGDPMCSFNMTPVGIGKCLKYILQWQLATLILGGGGYNLANTARCWTYLTGVILGKTLSSEIPDHEFFTAYGPDYVLEITPSCRPDRNEPHRIQQILNYIKGNLKHVV
B3: HES1 (protein, UniProt Q14469 1-280, looked up)
Transcription factor HES-1: MPADIMEKNSSSPVAATPASVNTTPDKPKTASEHRKSSKPIMEKRRRARINESLSQLKTLILDALKKDSSRHSKLEKADILEMTVKHLRNLQRAQMTAALSTDPSVLGKYRAGFSECMNEVTRFLSTCEGVNTEVRTRLLGHLANCMTQINAMTYPGQPHPALQAPPPPPPGPGGPQHAPFAPPPPLVPIPGGAAPPPGGAPCKLGSQAGEAAKVFGGFQVVPAPDGQFAFLIPNGAFAHSGPVIPVYTSNSGTSVGPNAVSPSSGPSLTADSMWRPWRN
B4: HELT (protein, UniProt A6NFD8 1-242, looked up)
Hairy and enhancer of …: MSDKLKERKRTPVSHKVIEKRRRDRINRCLNELGKTVPMALAKQSSGKLEKAEILEMTVQYLRALHSADFPRGREKAELLAEFANYFHYGYHECMKNLVHYLTTVERMETKDTKYARILAFLQSKARLGAEPAFPPLGSLPEPDFSYQLHPAGPEFAGHSPGEAAVFPQGSGAGPFPWPPGAARSPALPYLPSAPVPLASPAQQHSPFLTPVQGLDRHYLNLIGHAHPNALNLHTPQHPPVL
B5: HES5 (protein, UniProt Q5TA89 1-166, looked up)
Transcription factor HES-5: MAPSTVAVELLSPKEKNRLRKPVVEKMRRDRINSSIEQLKLLLEQEFARHQPNSKLEKADILEMAVSYLKHSKAFVAAAGPKSLHQDYSEGYSWCLQEAVQFLTLHAASDTQMKLLYHFQRPPAAPAAPAKEPKAPGAAPPPALSAKATAAAAAAHQPACGLWRPW
B6: HES3 (protein, UniProt Q61657 1-175, looked up)
Transcription factor HES-3: MEKKRRARINVSLEQLRSLLERHYSHQIRKRKLEKADILELSVKYMRSLQNSLQGLWPVPSGVDYPSGFQGGLRGVSQRLRPGEGDSGLRCPLLLQRREGSTTDSANPQATSVLNPCLPAIWAPSRAAGGSHSPQSPLPLPGGLLESSTDVVAPHPASNCQAESTRPGFRVWRPW
B7: HDAC11 (protein, UniProt Q96DB2 1-347, looked up)
Histone deacetylase 11: MLHTTQLYQHVPETRWPIVYSPRYNITFMGLEKLHPFDAGKWGKVINFLKEEKLLSDSMLVEAREASEEDLLVVHTRRYLNELKWSFAVATITEIPPVIFLPNFLVQRKVLRPLRTQTGGTIMAGKLAVERGWAINVGGGFHHCSSDRGGGFCAYADITLAIKFLFERVEGISRATIIDLDAHQGNGHERDFMDDKRVYIMDVYNRHIYPGDRFAKQAIRRKVELEWGTEDDEYLDKVERNIKKSLQEHLPDVVVYNAGTDILEGDRLGGLSISPAGIVKRDELVFRMVRGRRVPILMVTSGGYQKRTARIIADSILNLFGLGLIGPESPSVSAQNSDTPLLPPAVP
B8: HELIOS (protein, UniProt Q9UKS7 1-526, looked up)
Zinc finger protein Helios: METEAIDGYITCDNELSPEREHSNMAIDLTSSTPNGQHASPSHMTSTNSVKLEMQSDEECDRKPLSREDEIRGHDEGSSLEEPLIESSEVADNRKVQELQGEGGIRLPNGKLKCDVCGMVCIGPNVLMVHKRSHTGERPFHCNQCGASFTQKGNLLRHIKLHSGEKPFKCPFCSYACRRRDALTGHLRTHSVGKPHKCNYCGRSYKQRSSLEEHKERCHNYLQNVSMEAAGQVMSHHVPPMEDCKEQEPIMDNNISLVPFERPAVIEKLTGNMGKRKSSTPQKFVGEKLMRFSYPDIHFDMNLTYEKEAELMQSHMMDQAINNAITYLGAEALHPLMQHPPSTIAEVAPVISSAYSQVYHPNRIERPISRETADSHENNMDGPISLIRPKSRPQEREASPSNSCLDSTDSESSHDDHQSYQGHPALNPKRKQSPAYMKEDVKALDTTKAPKGSLKDIYKVFNGEGEQIRAFKCEHCRVLFLDHVMYTIHMGCHGYRDPLECNICGYRSQDRYEFSSHIVRGEHTFH
B9: GTF2IRD1 (protein, UniProt Q9UHL9 1-959, looked up)
General transcription factor …: MALLGKRCDVPTNGCGPDRWNSAFTRKDEIITSLVSALDSMCSALSKLNAEVACVAVHDESAFVVGTEKGRMFLNARKELQSDFLRFCRGPPWKDPEAEHPKKVQRGEGGGRSLPRSSLEHGSDVYLLRKMVEEVFDVLYSEALGRASVVPLPYERLLREPGLLAVQGLPEGLAFRRPAEYDPKALMAILEHSHRIRFKLKRPLEDGGRDSKALVELNGVSLIPKGSRDCGLHGQAPKVPPQDLPPTATSSSMASFLYSTALPNHAIRELKQEAPSCPLAPSDLGLSRPMPEPKATGAQDFSDCCGQKPTGPGGPLIQNVHASKRILFSIVHDKSEKWDAFIKETEDINTLRECVQILFNSRYAEALGLDHMVPVPYRKIACDPEAVEIVGIPDKIPFKRPCTYGVPKLKRILEERHSIHFIIKRMFDERIFTGNKFTKDTTKLEPASPPEDTSAEVSRATVLDLAGNARSDKGSMSEDCGPGTSGELGGLRPIKIEPEDLDIIQVTVPDPSPTSEEMTDSMPGHLPSEDSGYGMEMLTDKGLSEDARPEERPVEDSHGDVIRPLRKQVELLFNTRYAKAIGISEPVKVPYSKFLMHPEELFVVGLPEGISLRRPNCFGIAKLRKILEASNSIQFVIKRPELLTEGVKEPIMDSQGTASSLGFSPPALPPERDSGDPLVDESLKRQGFQENYDARLSRIDIANTLREQVQDLFNKKYGEALGIKYPVQVPYKRIKSNPGSVIIEGLPPGIPFRKPCTFGSQNLERILAVADKIKFTVTRPFQGLIPKPDEDDANRLGEKVILREQVKELFNEKYGEALGLNRPVLVPYKLIRDSPDAVEVTGLPDDIPFRNPNTYDIHRLEKILKAREHVRMVIINQLQPFAEICNDAKVPAKDSSIPKRKRKRVSEGNSVSSSSSSSSSSSSNPDSVASANQISLVQWPMYMVDYAGLNVQLPGPLNY
B10: APBB1 (protein, UniProt O00213 1-710, looked up)
Amyloid beta precursor …: MSVPSSLSQSAINANSHGGPALSLPLPLHAAHNQLLNAKLQATAVGPKDLRSAMGEGGGPEPGPANAKWLKEGQNQLRRAATAHRDQNRNVTLTLAEEASQEPEMAPLGPKGLIHLYSELELSAHNAANRGLRGPGLIISTQEQGPDEGEEKAAGEAEEEEEDDDDEEEEEDLSSPPGLPEPLESVEAPPRPQALTDGPREHSKSASLLFGMRNSAASDEDSSWATLSQGSPSYGSPEDTDSFWNPNAFETDSDLPAGWMRVQDTSGTYYWHIPTGTTQWEPPGRASPSQGSSPQEESQLTWTGFAHGEGFEDGEFWKDEPSDEAPMELGLKEPEEGTLTFPAQSLSPEPLPQEEEKLPPRNTNPGIKCFAVRSLGWVEMTEEELAPGRSSVAVNNCIRQLSYHKNNLHDPMSGGWGEGKDLLLQLEDETLKLVEPQSQALLHAQPIISIRVWGVGRDSGRERDFAYVARDKLTQMLKCHVFRCEAPAKNIATSLHEICSKIMAERRNARCLVNGLSLDHSKLVDVPFQVEFPAPKNELVQKFQVYYLGNVPVAKPVGVDVINGALESVLSSSSREQWTPSHVSVAPATLTILHQQTEAVLGECRVRFLSFLAVGRDVHTFAFIMAAGPASFCCHMFWCEPNAASLSEAVQAACMLRYQKCLDARSQASTSCLPAPPAESVARRVGWTVRRGVQSLWGSLKPKRLGAHTP
B11: HES2 (protein, UniProt Q9Y543 1-173, looked up)
Transcription factor HES-2: MGLPRRAGDAAELRKSLKPLLEKRRRARINQSLSQLKGLILPLLGRENSNCSKLEKADVLEMTVRFLQELPASSWPTAAPLPCDSYREGYSACVARLARVLPACRVLEPAVSARLLEHLWRRAASATLDGGRAGDSSGPSAPAPAPASAPEPASAPVPSPPSPPCGPGLWRPW
B12: HHEX (protein, UniProt Q03014 1-270, looked up)
Hematopoietically-expressed …: MQYPHPGPAAGAVGVPLYAPTPLLQPAHPTPFYIEDILGRGPAAPTPAPTLPSPNSSFTSLVSPYRTPVYEPTPIHPAFSHHSAAALAAAYGPGGFGGPLYPFPRTVNDYTHALLRHDPLGKPLLWSPFLQRPLHKRKGGQVRFSNDQTIELEKKFETQKYLSPPERKRLAKMLQLSERQVKTWFQNRRAKWRRLKQENPQSNKKEELESLDSSCDQRQDLPSEQNKGASLDSSQCSPSPASQEDLESEISEDSDQEVDIEGDKSYFNAG
B13: HESX (protein, UniProt Q9UBX0 1-185, looked up)
Homeobox expressed in ES …: MSPSLQEGAQLGENKPSTCSFSIERILGLDQKKDCVPLMKPHRPWADTCSSSGKDGNLCLHVPNPPSGISFPSVVDHPMPEERASKYENYFSASERLSLKRELSWYRGRRPRTAFTQNQIEVLENVFRVNCYPGIDIREDLAQKLNLEEDRIQIWFQNRRAKLKRSHRESQFLMAKKNFNTNLLE
B14: HAND1 (protein, UniProt O96004 1-215, looked up)
Heart- and neural crest …: MNLVGSYAHHHHHHHPHPAHPMLHEPFLFGPASRCHQERPYFQSWLLSPADAAPDFPAGGPPPAAAAAATAYGPDARPGQSPGRLEALGGRLGRRKGSGPKKERRRTESINSAFAELRECIPNVPADTKLSKIKTLRLATSYIAYLMDVLAKDAQSGDPEAFKAELKKADGGRESKRKRELQQHEGFPPALGPVEKRIKGRTGWPQQVWALELNQ
B15: HLF (protein, UniProt Q16534 1-295, looked up)
Hepatic leukemia factor: MEKMSRPLPLNPTFIPPPYGVLRSLLENPLKLPLHHEDAFSKDKDKEKKLDDESNSPTVPQSAFLGPTLWDKTLPYDGDTFQLEYMDLEEFLSENGIPPSPSQHDHSPHPPGLQPASSAAPSVMDLSSRASAPLHPGIPSPNCMQSPIRPGQLLPANRNTPSPIDPDTIQVPVGYEPDPADLALSSIPGQEMFDPRKRKFSEEELKPQPMIKKARKVFIPDDLKDDKYWARRRKNNMAAKRSRDARRLKENQIAIRASFLEKENSALRQEVADLRKELGKCKNILAKYEARHGPL

Each molecule was assayed on HEK293FT cells transfected with TF library (assay: Screening of TF condensates based on fluorescent puncta). Details: Figure 1B numerical data; TF library screen, one value per transcriptional factor.
Type: cell-based
In short: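 HEK293FT cells were reverse-transfected with Flag- or GAL4-tagged TF plasmids (1.6 μg/ml, PEI). After 60 h, cells were cultured 12 h with or without glucose, then fixed and immunostained with anti-Flag or anti-GAL4 and Alexa 488 secondaries. Fluorescent puncta were imaged over fifty random fields per well by high-content imaging.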

Row | Molecule | Z score of condensed fraction
1 | B1 | 1.497
2 | B2 | 0.9737
3 | B3 | -0.8248
4 | B4 | -0.4669
5 | B5 | -0.9865
6 | B6 | -1.103
7 | B7 | 0.2732
8 | B8 | -0.5188
9 | B9 | -0.874
10 | B10 | 2.844
11 | B11 | -1.172
12 | B12 | -0.4373
13 | B13 | -0.5047
14 | B14 | -0.3888
15 | B15 | 2.55

Reference: paper PMC11574045, “A cofactor-induced repressive type of transcription factor condensation can be induced by synthetic peptides to suppress tumorigenesis” (The EMBO Journal, 2024)
